Test results published in US20260274985A1 (MYTHIC THERAPEUTICS, published 2026).
Residue numbers refer to the chain shown, from its start.

Experiments:
[1] = target: T1, Human TROP2 Protein, His Tag (human, UniProt P09758 27-274); test: BLI (Octet)
T1 construct: Bought protein; also called TACSTD2; not shown: His tag
T1 sequence (looked up): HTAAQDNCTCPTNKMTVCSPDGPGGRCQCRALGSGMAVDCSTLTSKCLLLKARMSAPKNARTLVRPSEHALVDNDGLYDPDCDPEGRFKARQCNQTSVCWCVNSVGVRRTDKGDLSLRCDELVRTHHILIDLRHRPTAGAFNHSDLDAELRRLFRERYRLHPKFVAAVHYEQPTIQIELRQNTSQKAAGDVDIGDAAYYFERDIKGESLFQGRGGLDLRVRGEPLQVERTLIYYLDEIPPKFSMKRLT

[2] = target: T2, Human TROP2 Protein, His Tag (Acro Biosystems) (human, UniProt P09758 27-274); test: BLI (Octet)
T2 construct: Soluble analyte of the Octet assay; also called TACSTD2; not shown: His tag
T2 sequence (looked up): T1 sequence (looked up)

B1: MYT11653 (antibody, V domains shown)
VH: QVQLVQSGAEVKKPGASVKVSCKASGYTFTTAGMQWVRQAPGQGLEWMGWINTHSGHPKYAEDFKGRVTISADTSTSTAYLQLSSLKSEDTAVYYCARSGFGSSYWYFDVWGQGTLVTVSS
VL: DIQMTQSPSSLSASVGDRVTITCKASQDVSTAVAWYQQKPGKAPKLLIYSASYRYTGVPSRFSGSGSGTDFTLTISSLQPEDFAVYYCQQHYITPLTFGQGTKLEIK
notes: IgG from supernatant; His at HCV position 57; also called datopotamab variant H2 08
[1]
  binding result: binds

B2: MYT13176 (antibody, V domains shown)
VH: QVQLQQSGSELKKPGASVKVSCKASGYTFTNHGMNWVKQAPGQGLKWMGWINTYTGEPTYTDDFKGRFAFSLDTSVSTAYLQISSLKADDTAVYFCARGGFGSSYWYFDVWGQGSLVTVSS
VL: B1 VL with M4L, T20S, T31I, A51H, S60D, Q100A, L104V
notes: Sacituzumab HC-LC pairing variant; IgG
[2]
  binding result: binds

B3: MYT11667 (antibody, V domains shown)
VH: B1 VH with H57V, F101H
VL: B1 VL
notes: IgG from supernatant; His at HCV position 101; also called datopotamab variant H3 05
[1]
  binding result: binds

B4: MYT11661 (antibody, V domains shown)
VH: B1 VH with H57V, K65H
VL: B1 VL
notes: IgG from supernatant; His at HCV position 65; also called datopotamab variant H2 16
[1]
  binding result: binds

B5: MYT11664 (antibody, V domains shown)
VH: B1 VH with H57V, R98H
VL: B1 VL
notes: IgG from supernatant; His at HCV position 98; also called datopotamab variant H3 02
[1]
  binding result: binds

B6: MYT11674 (antibody, V domains shown)
VH: B1 VH with H57V, F108H
VL: B1 VL
notes: IgG from supernatant; also called datopotamab variant H3 12
[1]
  binding result: binds

B7: MYT11654 (antibody, V domains shown)
VH: B1 VH with H57V, P58H
VL: B1 VL
notes: IgG from supernatant; His at HCV position 58; also called datopotamab variant H2 09
[1]
  binding result: binds

B8: MYT11656 (antibody, V domains shown)
VH: B1 VH with H57V, Y60H
VL: B1 VL
notes: IgG from supernatant; His at HCV position 60; also called datopotamab variant H2 11
[1]
  binding result: binds

B9: MYT11675 (antibody, V domains shown)
VH: B1 VH with H57V, D109H
VL: B1 VL
[1]
  binding result: binds

B10: MYT11662 (antibody, V domains shown)
VH: B1 VH with H57V, G66H
VL: B1 VL
notes: IgG from supernatant; His at HCV position 66; also called datopotamab variant H2 17
[1]
  binding result: binds

B11: MYT11659 (antibody, V domains shown)
VH: B1 VH with H57V, D63H
VL: B1 VL
notes: IgG from supernatant; His at HCV position 63; also called datopotamab variant H2 14
[1]
  binding result: binds

B12: MYT11660 (antibody, V domains shown)
VH: B1 VH with H57V, F64H
VL: B1 VL
notes: IgG from supernatant; His at HCV position 64; also called datopotamab variant H2 15
[1]
  binding result: binds

B13: MYT11658 (antibody, V domains shown)
VH: B1 VH with H57V, E62H
VL: B1 VL
notes: IgG from supernatant; His at HCV position 62; also called datopotamab variant H2 13
[1]
  binding result: binds

B14: MYT11673 (antibody, V domains shown)
VH: B1 VH with H57V, Y107H
VL: B1 VL
notes: IgG from supernatant; also called datopotamab variant H3 11
[1]
  binding result: binds

B15: MYT11655 (antibody, V domains shown)
VH: B1 VH with H57V, K59H
VL: B1 VL
notes: IgG from supernatant; His at HCV position 59; also called datopotamab variant H2 10
[1]
  binding result: binds

B16: MYT13161 (antibody, V domains shown)
VH: B2 VH with H32Y, G33H
VL: B1 VL with M4L, T20S, S30H, T31I, S60D, Q100A, L104V
notes: as for B2
[2]
  binding result: binds

B17: MYT11657 (antibody, V domains shown)
VH: B1 VH with H57V, A61H
VL: B1 VL
notes: IgG from supernatant; His at HCV position 61; also called datopotamab variant H2 12
[1]
  binding result: binds
